What is called EC50 is the concentration needed to bring the measured effect to its halfway point. For orientation: Kd means the equilibrium constant for the complex coming apart.

These results are taken from patent publication US20260265385A1 (ANAPTYSBIO, published 2026).

For assay [1], the target named is T1, cynomolgus IL-2Rβ (CD122), full-length, on cells (cynomolgus, UniProt Q38J85 27-551).
T1 construct: whole, on cells; Co-expressed with full-length cynomolgus IL-2Rγ on CHO-K1 cells; also called cynomolgus IL-2Rβγ; cyno IL-2βγ
T1 sequence (looked up): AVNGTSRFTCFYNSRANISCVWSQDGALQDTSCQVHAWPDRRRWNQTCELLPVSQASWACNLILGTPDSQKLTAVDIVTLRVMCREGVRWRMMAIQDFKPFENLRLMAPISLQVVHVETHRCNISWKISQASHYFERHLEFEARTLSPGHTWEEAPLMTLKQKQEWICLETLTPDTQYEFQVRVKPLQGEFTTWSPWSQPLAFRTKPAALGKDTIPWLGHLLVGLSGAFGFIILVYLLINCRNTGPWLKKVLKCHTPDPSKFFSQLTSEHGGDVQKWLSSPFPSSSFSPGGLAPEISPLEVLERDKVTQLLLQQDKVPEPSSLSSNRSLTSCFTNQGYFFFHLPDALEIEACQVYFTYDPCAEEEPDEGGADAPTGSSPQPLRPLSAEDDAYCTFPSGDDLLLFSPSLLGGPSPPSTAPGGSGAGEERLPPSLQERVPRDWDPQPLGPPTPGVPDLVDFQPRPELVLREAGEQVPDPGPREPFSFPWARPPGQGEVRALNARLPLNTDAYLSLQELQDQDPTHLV
Nature of the assay: flow cytometry on CHO-K1 cells expressing cynomolgus IL-2Rβ and IL-2Rγ (panel 'Cell Binding cyno IL-2Rbg CHO'); unit taken from the axis 'Antibody Concentration nM'. The method, then: (§1) CHO-K1 cells stably expressing either full-length human or cyno IL-2Rβ and IL-2Rγ cultured in the log phase of growth were harvested with Accutase solution, resuspended in FACS buffer, and plated at 100,000 cells/well in a 96 well plate. The concentrations indicated in FIG. 5 of antibodies starting at 100 nM and diluted 1:3 were incubated with the cells for 45 minutes on a plate shaker at4° C. After washing, cells were incubated with goat anti-human kappa DyL650 secondary antibody for 20 minutes on a plate shaker at4° C. Cells were washed again and analyzed on a FACSArray flow cytometer. Data were analyzed using Novoexpress and GraphPad Prism software.

Assay [2] addresses T2, human IL-2Rβ (CD122), full-length, on cells (human, UniProt P14784 27-551).
T2 construct: whole, on cells; also called human IL-2Rβγ; human IL-2βγ
T2 sequence (looked up): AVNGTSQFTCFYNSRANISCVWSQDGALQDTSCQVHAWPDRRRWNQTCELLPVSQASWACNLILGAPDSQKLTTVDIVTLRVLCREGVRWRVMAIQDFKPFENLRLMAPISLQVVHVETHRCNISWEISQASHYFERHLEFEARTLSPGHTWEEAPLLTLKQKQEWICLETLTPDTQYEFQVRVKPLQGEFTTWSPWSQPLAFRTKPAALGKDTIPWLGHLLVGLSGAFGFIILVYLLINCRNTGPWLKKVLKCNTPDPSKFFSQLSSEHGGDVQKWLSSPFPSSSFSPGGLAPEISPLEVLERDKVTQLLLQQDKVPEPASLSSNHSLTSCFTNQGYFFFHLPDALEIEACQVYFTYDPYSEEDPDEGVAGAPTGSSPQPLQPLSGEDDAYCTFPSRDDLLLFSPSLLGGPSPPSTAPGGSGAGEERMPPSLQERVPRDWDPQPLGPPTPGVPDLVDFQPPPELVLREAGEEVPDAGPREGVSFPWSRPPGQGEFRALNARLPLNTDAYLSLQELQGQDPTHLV
Briefly: flow cytometry competition: antibody titrated against recombinant IL-2 (5 nM) binding to HEK293 cells expressing human IL-2Rβ and IL-2Rγ. Here is the method: (§2) HEK293 cells stably transfected with human IL-2Rβ and IL-2Rγ were plated at 100,000 cells/well in a 96 well plate. Antibodies were titrated at the concentrations indicated in FIG. 8 starting at 100 nM and diluted 1:3, and added to the cells. Recombinant IL-2 (5 nM) or recombinant IL-15 (2 nM) were also added to the cells. Cells were incubated for 30 minutes on a plate shaker at 4° C. Cells were washed and then analyzed on a flow cytometer, and data were analyzed using Novoexpress and GraphPad Prism software.
In general terms: A flow cytometer gives signals particle by particle.

In assay [3] the target is T2, human IL-2Rβ (CD122), full-length, on …. Nature of the assay: flow cytometry on CHO-K1 cells expressing human IL-2Rβ and IL-2Rγ (panel 'Cell Binding human IL-2Rbg CHO'); unit taken from the axis 'Antibody Concentration nM'. The method, then:
as §1

Assay [4] has the same target. Nature of the assay: flow cytometry competition: antibody titrated against recombinant IL-15 (2 nM) binding to HEK293 cells expressing human IL-2Rβ and IL-2Rγ. Here is the method: as §2
Assay [5] deals with T3, recombinant human IL-2Rβ (extracellular domain, Ala1-Thr215) (human, UniProt P14784 27-240).
T3 construct: extracellular domain; Analyte in SPR; Ala1-Thr215 is counted on the mature protein; also called human LL-2Rβ; Human IL-2RB
T3 sequence (looked up): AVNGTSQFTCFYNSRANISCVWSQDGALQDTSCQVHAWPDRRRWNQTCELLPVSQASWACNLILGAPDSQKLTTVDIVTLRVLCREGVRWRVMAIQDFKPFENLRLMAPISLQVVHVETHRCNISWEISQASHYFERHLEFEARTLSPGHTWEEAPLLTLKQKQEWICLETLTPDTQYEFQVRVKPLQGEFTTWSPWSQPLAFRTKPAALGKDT
Briefly: SPR, antibody captured on Protein A chip. The procedure, abridged: (§3)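 Antibodies captured on a Protein A chip (0.5 μg/mL, 60 s), then exposed to IL-2Rβ extracellular domain (Ala1-Thr215) at about 0.4–11 nM; 300 s association, 1200 s dissociation. On- and off-rates and KD from a global 1:1 binding fit.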
A general note: Surface plasmon resonance follows binding to a sensor surface in real time, without labels.

The target of assay [6] is T4, recombinant cynomolgus IL-2Rβ (extracellular domain, Ala1-Thr215) (cynomolgus, UniProt Q38J85 27-240).
T4 construct: extracellular domain; Analyte in SPR; also called cynomolgus LL-2Rβ; Cyno IL-2RB
T4 sequence (looked up): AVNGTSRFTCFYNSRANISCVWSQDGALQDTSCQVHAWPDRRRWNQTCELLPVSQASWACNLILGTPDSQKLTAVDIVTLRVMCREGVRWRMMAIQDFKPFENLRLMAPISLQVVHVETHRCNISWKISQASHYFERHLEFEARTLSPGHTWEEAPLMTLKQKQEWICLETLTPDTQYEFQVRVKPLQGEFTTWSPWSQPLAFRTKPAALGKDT
Nature of the assay: SPR, antibody captured on Protein A chip. The method, boiled down:
as §3

The target in assay [7] is T1, cynomolgus IL-2Rβ (CD122), full-length, …. Nature of the assay: flow cytometry on CHO-K1 cells expressing cynomolgus IL-2Rβ and IL-2Rγ. The method, then: (§4) CHO-K1 cells stably expressing full-length human or cynomolgus IL-2Rβ and IL-2Rγ cultured in the log phase of growth were harvested with Accutase solution, resuspended in FACS buffer, and plated at 100,000 cells/well in a 96-well plate. The concentrations of antibodies indicated in FIGS. 1 and 2 starting at 100 nM and diluted 1:3 were incubated with the cells for 45 minutes on a plate shaker at 4° C. After washing, the cells were incubated with goat-anti-human kappa DyL650 secondary antibody for 20 minutes on a plate shaker at 4° C. Cells were washed again and analyzed on a FACSArray flow cytometer. Data were analyzed using Novoexpress and GraphPad Prism software. Table 3 lists anti-CD122 chimeric antibody binding characteristics: affinity to human and cyno CD122 protein (KD, measured by SPR assay), ability to block IL-2 (SPR assay), and binding EC50 to cell-expressed human and cyno CD122/CD132 (cell-based receptor binding assay).

In assay [8] the target is T2, human IL-2Rβ (CD122), full-length, on …. Briefly: flow cytometry on CHO-K1 cells expressing human IL-2Rβ and IL-2Rγ. Here is the method:
as §4

Assay [9] deals with T3, recombinant human IL-2Rβ (extracellular …). Nature of the assay: SPR.
The target of assay [10] is T4, recombinant cynomolgus IL-2Rβ …. Nature of the assay: SPR.

B1: APE15170 (antibody)
heavy: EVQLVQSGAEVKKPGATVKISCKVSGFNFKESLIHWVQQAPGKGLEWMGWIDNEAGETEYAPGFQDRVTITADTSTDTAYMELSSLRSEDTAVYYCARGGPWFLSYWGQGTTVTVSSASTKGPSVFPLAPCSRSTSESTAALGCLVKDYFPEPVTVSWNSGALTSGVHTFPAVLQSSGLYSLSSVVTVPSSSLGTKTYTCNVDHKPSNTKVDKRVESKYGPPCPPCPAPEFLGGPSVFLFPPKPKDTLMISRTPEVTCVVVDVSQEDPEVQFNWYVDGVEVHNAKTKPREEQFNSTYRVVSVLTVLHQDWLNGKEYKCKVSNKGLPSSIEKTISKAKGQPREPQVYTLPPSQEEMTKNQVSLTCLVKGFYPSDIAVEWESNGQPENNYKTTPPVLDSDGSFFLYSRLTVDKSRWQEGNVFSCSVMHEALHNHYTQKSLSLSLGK
light: EIVMTQSPATLSVSPGERATLSCRASQIISNNLHWYQQKPGQAPRLLIIYGLQSISGIPARFSGSRSGTEFTLTISSLQSEDFAVYFCQQSNNFPWTFGQGTKLEIKRTVAAPSVFIFPPSDEQLKSGTASVVCLLNNFYPREAKVQWKVDNALQSGNSQESVTEQDSKDSTYSLSSTLTLSKADYEKHKVYACEVTHQGLSSPVTKSFNRGEC
notes: M10-1275 series
For B1, the EC50 turned out to be 0.146 nM in assay [1] and 0.139 nM in [3]. In addition, the “IC50 (read off the curve)” value in [2] and in [4] was around 0.4 nM throughout. For the same molecule, the Kd in [5] came to 0.0128 nM; in assay [6] it was 0.00487 nM.

B2: APE12383 (antibody, V domains shown)
VH: QVQLQQSGAELMKPGASVKISCKSTGYTFSRYWIEWVKQRPGHGLEWIGEILPGSGSINHNEKFQGKATFTADTSSNTVYMQLSSLTSEDSAVYFCTRHYGSFDYWGQGTTLTVSS
VL: EIVMTQSPKFMSTSVGDRVSVTCKASQNVGTDVAWYQQKPGQSPKALIYSASYRYNGVPDRFTGSGSGTDFTLTISNVQSEDLAEYFCHQYSSYPFTFGSGTKLEIKR
notes: M6-p1625 series; human kappa detected by the secondary antibody; also called APE 12383.03; M6-p1625
With B2, the EC50 came to 0.147 nM in assay [7] and 0.142 nM in [8]. Moreover, the Kd in assay [9] was around 0.34 nM; in assay [10] it was around 0.26 nM; in assay [5], 0.34 nM; in assay [6] it was 0.26 nM.

B3: APE15295 (antibody)
heavy: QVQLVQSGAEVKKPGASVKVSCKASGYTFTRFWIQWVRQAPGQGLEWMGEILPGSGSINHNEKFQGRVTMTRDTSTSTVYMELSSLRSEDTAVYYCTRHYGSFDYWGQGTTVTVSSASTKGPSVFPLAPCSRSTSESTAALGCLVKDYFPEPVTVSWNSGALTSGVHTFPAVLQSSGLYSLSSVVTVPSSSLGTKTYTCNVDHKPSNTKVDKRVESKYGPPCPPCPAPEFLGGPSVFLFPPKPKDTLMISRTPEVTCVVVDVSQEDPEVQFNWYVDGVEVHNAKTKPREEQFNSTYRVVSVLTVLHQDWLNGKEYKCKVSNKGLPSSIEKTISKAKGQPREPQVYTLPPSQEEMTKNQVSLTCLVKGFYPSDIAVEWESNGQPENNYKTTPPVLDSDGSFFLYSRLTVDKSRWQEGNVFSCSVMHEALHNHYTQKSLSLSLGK
light: DIQMTQSPSSLSASVGDRVTITCKASQNVGTDVAWYQQKPGKAPKSLIYSASYRYSGVPSRFSGSGSGTDFTLTISSLQPEDFATYFCHQYESYPFTFGQGTKLEIKRTVAAPSVFIFPPSDEQLKSGTASVVCLLNNFYPREAKVQWKVDNALQSGNSQESVTEQDSKDSTYSLSSTLTLSKADYEKHKVYACEVTHQGLSSPVTKSFNRGEC
notes: M6-p1625 series
As to B3, the “IC50 (read off the curve)” value is around 0.08 nM in assay [2] and around 0.05 nM in assay [4]. Moreover, the Kd in [5] stood at 0.0557 nM; in assay [6], 0.0707 nM.

B4: APE12705 (antibody, V domains shown)
VH: DVQLQQSGAELARPGASVKLSCTVSGFNFKDSLMHWVTQGPERGLRWIGWIDSENGETEYAPGFQDKATITADTSSSTVYLHLSSLTSEDTAIYYCARGGPWFLSYWGPGTTLTVSS
VL: DIVLTQTPATLSVTPGDSVSLSCRASQIISNNLHWYQQKSHESPRLLIIYGLQSISGIPYRFSGRRSGTDFTLNINSVEIEDFGMYFCQQSNNWPWTFGGGTKLDIRR
notes: M10-1275 series; human kappa detected by the secondary antibody; also called APE 12705.02; M10-1275
On to B4, for which the EC50 was determined as 0.0876 nM in assay [7] and 0.174 nM in assay [8]. Moreover, the Kd in assay [9] was around 0.08 nM; in assay [10], around 0.02 nM; in assay [5], 0.08 nM; in [6] it was 0.02 nM.
